According to patent US20210238260:
Substitutions are numbered along the chain they refer to. In names and notes the source's numbering stands.

B1: FIXa-Y155F/K228N/R318Y/R338E/R403E/E410N (protein)
chain 1: YNSGKLEEFVQGNLERECMEEKCSFEEAREVFENTERTTEFWKQYVDGDQCESNPCLNGGSCKDDINSYECWCPFGFEGKNCELDVTCNIKNGRCEQFCKNSADNKVVCSCTEGYRLAENQKSCEPAVPFPCGRVSVSQTSKLTR
chain 2: VVGGEDAKPGQFPWQVVLNGKVDAFCGGSIVNEKWIVTAAHCVETGVNITVVAGEHNIEETEHTEQKRNVIRIIPHHNYNAAINKYNHDIALLELDEPLVLNSYVTPICIADKEYTNIFLKFGSGYVSGWGRVFHKGYSALVLQYLRVPLVDRATCLESTKFTIYNNMFCAGFHEGGRDSCQGDSGGPHVTEVEGTSFLTGIISWGEECAMKGKYGIYTKVSEYVNWIKNKTKLT
B2: FIXa K228N/K247N/N249S/R318Y/R338E/R403E/E410N (protein)
chain 1: B1 chain 1
chain 2: B1 chain 2 with K67N, N69S
B3: FIXa D104N/K106S/K228N/K247N/N249S/R318Y/R338E/R403E/E410N (protein)
chain 1: B1 chain 1 with D104N, K106S
chain 2: B1 chain 2 with K67N, N69S
B4: FIXa-R318Y/R338E/R403E/T412A (protein)
chain 1: B1 chain 1
chain 2: B1 chain 2 with N48K, N230E, T232A
B5: FIXa-K228N/K247N/N249S/R318Y/R338E/T343R/R403E (protein)
chain 1: B1 chain 1
chain 2: B1 chain 2 with K67N, N69S, T163R, N230E
B6: FIXa Y155F/K228N/K247N/N249S (protein)
chain 1: B1 chain 1
chain 2: B1 chain 2 with K67N, N69S, Y138R, E158R, E223R, N230E
B7: FIXa-K228N/I251S/R318Y/R338E/R403E/E410N (protein)
chain 1: B1 chain 1
chain 2: B1 chain 2 with I71S
B8: FIXa-D85N/K228N/R318Y/R338E/R403E/E410N (protein)
chain 1: B1 chain 1 with D85N
chain 2: B1 chain 2
B9: FIXa-D104N/K106S/I251S/R318Y/R338E/R403E/E410N (protein)
chain 1: B1 chain 1 with D104N, K106S
chain 2: B1 chain 2 with N48K, I71S
B10: FIXa-K228N/R318Y/R338E/T343R/R403E/E410N (protein)
chain 1: B1 chain 1
chain 2: B1 chain 2 with T163R
B11: FIXa-N260S/R318Y/R338E/T343R/R403E/E410N (protein)
chain 1: B1 chain 1
chain 2: B1 chain 2 with N48K, N80S, T163R
B12: FIXa-Y155F/R338E/T343R/R403E/E410N (protein)
chain 1: B1 chain 1
chain 2: B1 chain 2 with N48K, Y138R, T163R
B13: FIXa-Y155F/I251S/R318Y/R338E/R403E/E410N (protein)
chain 1: B1 chain 1
chain 2: B1 chain 2 with N48K, I71S
B14: FIXa-R318Y/R338E/N346D/R403E/E410N (protein)
chain 1: B1 chain 1
chain 2: B1 chain 2 with N48K, N166D

Tests used:
[1] = target: plasma purified human AT-III (antithrombin III); assay: AT-III/UFH inhibition K0.5, ratio to Catalyst Biosciences WT FIXa
[2] = target: plasma purified human antithrombin III (AT-III), as complex with unfractionated heparin; assay: ratio of K0.5 (lower limit) to Catalyst Biosciences WT FIXa, AT-III/UFH inhibition

Chain of Factor X (FX), P00742 (P00742 whole entry, looked up): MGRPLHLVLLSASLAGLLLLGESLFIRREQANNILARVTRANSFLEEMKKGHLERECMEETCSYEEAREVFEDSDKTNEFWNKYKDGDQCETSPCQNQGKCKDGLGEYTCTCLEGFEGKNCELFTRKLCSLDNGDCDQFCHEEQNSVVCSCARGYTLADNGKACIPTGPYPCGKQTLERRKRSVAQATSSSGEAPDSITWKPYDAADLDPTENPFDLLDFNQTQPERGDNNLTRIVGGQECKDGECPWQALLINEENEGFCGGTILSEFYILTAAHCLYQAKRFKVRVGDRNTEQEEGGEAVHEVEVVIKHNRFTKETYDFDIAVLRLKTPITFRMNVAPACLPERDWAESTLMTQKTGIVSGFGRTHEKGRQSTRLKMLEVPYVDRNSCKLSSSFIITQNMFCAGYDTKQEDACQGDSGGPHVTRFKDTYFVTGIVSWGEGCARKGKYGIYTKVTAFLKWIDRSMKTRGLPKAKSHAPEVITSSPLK
Chain of Factor X, P00742 (P00742 whole entry, looked up): as above

Protein | % of WT kcat/KM (Factor X, P00742) [%] | KM (Factor X, P00742) [µM] | kcat/KM (Factor X, P00742) [M⁻¹ s⁻¹] | K0.5-mut/K0.5-wt [1] | K0.5-mut/K0.5-wt [2] | also measured
B1 | 453 | 0.048 | 2e+08 | > 517 | 517 | % of WT kcat/KM (Factor X (FX), P00742): 356%; kcat (Factor X (FX), P00742): 9.7 s⁻¹; kcat/KM (Factor X (FX), P00742): 1.6e+08 M⁻¹ s⁻¹
B2 | 352 |  | 1.6e+08 |  |  | KM (FX activation by FIXa in the Xase complex with FVIIIa, PC/PS vesicles and Ca2+) (Factor X (FX), P00742): 0.0497 µM
B3 | 239 |  | 1.1e+08 |  |  | KM (FX activation by FIXa in the Xase complex with FVIIIa, PC/PS vesicles and Ca2+) (Factor X (FX), P00742): 0.0533 µM
B4 |  |  |  | > 517 | 517 | 
B5 |  | 0.0444 |  |  |  | kcat (s^-1) of FX activation by FIXa variant in the Xase complex (FVIIIa, PC/PS vesicles, Ca2+), fluorogenic FXa read-out (Factor X (FX), P00742): 10.9 s⁻¹
B6 | 115 |  | 5.3e+07 |  |  | KM (FX activation by FIXa in the Xase complex with FVIIIa, PC/PS vesicles and Ca2+) (Factor X (FX), P00742): 0.0792 µM
B7 | 463 |  | 2.1e+08 |  |  | kcat (Factor X, P00742): 7.5 s⁻¹; KM (Factor X (FX), P00742): 0.0364 µM
B8 | 346 | 0.0393 | 1.6e+08 | > 517 | 517 | % of WT kcat/KM (Factor X (FX), P00742): 336%; kcat (Factor X (FX), P00742): 6 s⁻¹; kcat/KM (Factor X (FX), P00742): 1.6e+08 M⁻¹ s⁻¹
B9 |  |  |  | > 517 | 517 | % of WT kcat/KM (Factor X (FX), P00742): 263%; kcat (Factor X (FX), P00742): 5.5 s⁻¹; kcat/KM (Factor X (FX), P00742): 1.2e+08 M⁻¹ s⁻¹
B10 |  | 0.0403 |  |  |  | kcat (s^-1) of FX activation by FIXa variant in the Xase complex (FVIIIa, PC/PS vesicles, Ca2+), fluorogenic FXa read-out (Factor X (FX), P00742): 10.5 s⁻¹
B11 | 638 |  | 2.9e+08 |  |  | kcat (Factor X, P00742): 8.9 s⁻¹; KM (Factor X (FX), P00742): 0.0321 µM
B12 | 524 |  | 2.4e+08 |  |  | kcat (Factor X, P00742): 5.7 s⁻¹; KM (Factor X (FX), P00742): 0.0259 µM
B13 | 374 | 0.0433 | 1.7e+08 | > 517 | 517 | % of WT kcat/KM (Factor X (FX), P00742): 363%; kcat (Factor X (FX), P00742): 7.2 s⁻¹; kcat/KM (Factor X (FX), P00742): 1.7e+08 M⁻¹ s⁻¹
B14 |  |  |  | > 517 | 517 | KM (Factor X (FX), P00742): 0.0777 µM; kcat of FX activation by FIXa (Xase complex with FVIIIa, PC/PS vesicles, Ca2+) (Factor X (FX), P00742): 2.5 s⁻¹
